In assay [1] the target is A366 peptide of STING.
The target of assay [2] is S366 peptide of STING.
Assay [3] deals with A366 peptide. The assay is described as follows: screening of kinases for S366 of STING (33P-ATP). The class given is biochemical. Particulars: kinase mixed with peptide and 33P-ATP. On the procedure: (§1) The activity of 217 protein kinase targets were evaluated against 2 peptides (A366 and S366) as substrate. Protein kinases were mixed with each peptide and ^33P-ATP and then activity (CPM) was measured. The below kinases were identified as phosphorylating S366 in STING. Identification of kinases which target this serine opens up novel avenues for drug discovery. Drugs that target this association may inhibit STING activity and be used for therapeutic purposes to inhibit STING activity. STING over activity may lead to inflammatory diseases which can exacerbate cancer.

Assay [4] has as its system S366 peptide. The assay can be described thus: screening of kinases for S366 of STING (33P-ATP). The class given is biochemical. Particulars: for Fold inducton: S366 peptide vs A366 peptide; for Activity, S366 peptide: kinase mixed with peptide and 33P-ATP. On the procedure: as §1

Experimental findings from patent US20180085432A1, “STING (Stimulator of Interferon Genes), A Regulator of Innate Immune Responses” (University of Miami, priority 2008, published 2018) are described below.

Consider NEK7 (from UniProt Q8TDX7) (enzyme), for which the Activity (cpm), kinase mixed with peptide and 33P-ATP amounted to 3620 cpm in assay [1] and 19100 cpm in assay [2].
As for PIM2 (from UniProt Q9P1W9) (enzyme), the Activity (cpm), kinase mixed with peptide and 33P-ATP turned out to be 1410 cpm in assay [1] and 3720 cpm in assay [2].
The corresponding values for PKC (isoform illegible) (enzyme) are 6810 cpm and 12800 cpm.
Consider CK1 (isoform illegible) (enzyme), for which the Activity (cpm), kinase mixed with peptide and 33P-ATP in assay [1] was 15600 cpm; in assay [2], 26200 cpm.
On the same counts, the results for NEK6 (from UniProt Q9HC98) (enzyme) are 5510 cpm and 35600 cpm.
Consider NEK6: protein kinase, for which the “Activity, A366 peptide” value in assay [3] is on record as 5512 cpm. Further, in assay [4], the Fold inducton is recorded as 6.45 and the “Activity, S366 peptide” value was 35556 cpm.
On the same counts, the results for NEK7: protein kinase are 3619 cpm, 5.28 and 19112 cpm.
On the same counts, the results for PIM2: protein kinase are 1414 cpm, 2.63 and 3715 cpm.

B1: IRAK4 (enzyme)
chain: MNKPITPSTYVRCLNVGLIRKLSDFIDPQEGWKKLAVAIKKPSGDDRYNQFHIRRFEALLQTGKSPTSELLFDWGTTNCTVGDLVDLLIQNEFFAPASLLLPDAVPKTANTLPSKEAITVQQKQMPFCDKDRTLMTPVQNLEQSYMPPDSSSPENKSLEVSDTRFHSFSFYELKNVTNNFDERPISVGGNKMGEGGFGVVYKGYVNNTTVAVKKLAAMVDITTEELKQQFDQEIKVMAKCQHENLVELLGFSSDGDDLCLVYVYMPNGSLLDRLSCLDGTPPLSWHMRCKIAQGAANGINFLHENHHIHRDIKSANILLDEAFTAKISDFGLARASEKFAQTVMTSRIVGTTAYMAPEALRGEITPKSDIYSFGVVLLEIITGLPAVDEHREPQLLLDIKEEIEDEEKTIEDYIDKKMNDADSTSVEAMYSVASQCLHEKKNKRPDIKKVQQLLQEMTAS
B1: in assay [1], the Activity (cpm), kinase mixed with peptide and 33P-ATP stood at 7440 cpm. Also, the Activity (cpm), kinase mixed with peptide and 33P-ATP in assay [2] amounted to 50400 cpm. In addition, the “Activity, A366 peptide” value in assay [3] was determined as 7435 cpm. Moreover, in assay [4], the Fold inducton came out at 6.77 and the “Activity, S366 peptide” value came to 50353 cpm.

B2: NEK2 (enzyme)
chain: MPSRAEDYEVLYTIGTGSYGRCQKIRRKSDGKILVWKELDYGSMTEAEKQMLVSEVNLLRELKHPNIVRYYDRIIDRTNTTLYIVMEYCEGGDLASVITKGTKERQYLDEEFVLRVMTQLTLALKECHRRSDGGHTVLHRDLKPANVFLDGKQNVKLGDFGLARILNHDTSFAKTFVGTPYYMSPEQMNRMSYNEKSDIWSLGCLLYELCALMPPFTAFSQKELAGKIREGKFRRIPYRYSDELNEIITRMLNLKDYHRPSVEEILENPLIADLVADEQRRNLERRGRQLGEPEKSQDSSPVLSELKLKEIQLQERERALKAREERLEQKEQELCVRERLAEDKLARAENLLKNYSLLKERKFLSLASNPELLNLPSSVIKKKVHFSGESKENIMRSENSESQLTSKSKCKDLKKRLHAAQLRAQALSDIEKNYQLKSRQILGMR
B2: the Activity (cpm), kinase mixed with peptide and 33P-ATP in assay [1] came to 8700 cpm. The Activity (cpm), kinase mixed with peptide and 33P-ATP in assay [2] was 162000 cpm. Moreover, the “Activity, A366 peptide” value in assay [3] amounted to 8702 cpm. Moreover, in assay [4], the Fold inducton amounted to 18.65 and the “Activity, S366 peptide” value came out at 162331 cpm.

B3: NEK9 (enzyme)
chain: MSVLGEYERHCDSINSDFGSESGGCGDSSPGPSASQGPRAGGGAAEQEELHYIPIRVLGRGAFGEATLYRRTEDDSLVVWKEVDLTRLSEKERRDALNEIVILALLQHDNIIAYYNHFMDNTTLLIELEYCNGGNLYDKILRQKDKLFEEEMVVWYLFQIVSAVSCIHKAGILHRDIKTLNIFLTKANLIKLGDYGLAKKLNSEYSMAETLVGTPYYMSPELCQGVKYNFKSDIWAVGCVIFELLTLKRTFDATNPLNLCVKIVQGIRAMEVDSSQYSLELIQMVHSCLDQDPEQRPTADELLDRPLLRKRRREMEEKVTLLNAPTKRPRSSTVTEAPIAVVTSRTSEVYVWGGGKSTPQKLDVIKSGCSARQVCAGNTHFAVVTVEKELYTWVNMQGGTKLHGQLGHGDKASYRQPKHVEKLQGKAIRQVSCGDDFTVCVTDEGQLYAFGSDYYGCMGVDKVAGPEVLEPMQLNFFLSNPVEQVSCGDNHVVVLTRNKEVYSWGCGEYGRLGLDSEEDYYTPQKVDVPKALIIVAVQCGCDGTFLLTQSGKVLACGLNEFNKLGLNQCMSGIINHEAYHEVPYTTSFTLAKQLSFYKIRTIAPGKTHTAAIDERGRLLTFGCNKCGQLGVGNYKKRLGINLLGGPLGGKQVIRVSCGDEFTIAATDDNHIFAWGNGGNGRLAMTPTERPHGSDICTSWPRPIFGSLHHVPDLSCRGWHTILIVEKVLNSKTIRSNSSGLSIGTVFQSSSPGGGGGGGGGEEEDSQQESETPDPSGGFRGTMEADRGMEGLISPTEAMGNSNGASSSCPGWLRKELENAEFIPMPDSPSPLSAAFSESEKDTLPYEELQGLKVASEAPLEHKPQVEASSPRLNPAVTCAGKGTPLTPPACACSSLQVEVERLQGLVLKCLAEQQKLQQENLQIFTQLQKLNKKLEGGQQVGMHSKGTQTAKEEMEMDPKPDLDSDSWCLLGTDSCRPSL
B3 returned an Activity (cpm), kinase mixed with peptide and 33P-ATP in assay [1] of 6980 cpm. Further, the Activity (cpm), kinase mixed with peptide and 33P-ATP in assay [2] amounted to 26300 cpm. Besides, in assay [3], the “Activity, A366 peptide” value was 6977 cpm. For the same molecule, in assay [4], the Fold inducton came out at 3.77 and the “Activity, S366 peptide” value amounted to 26284 cpm.

B4: GRK7 (enzyme)
chain: MVDMGALDNLIANTAYLQARKPSDCDSKELQRRRRSLALPGLQGCAELRQKLSLNFHSLCEQQPIGRRLFRDFLATVPTFRKAATFLEDVQNWELAEEGPTKDSALQGLVATCASAPAPGNPQPFLSQAVATKCQAATTEEERVAAVTLAKAEAMAFLQEQPFKDFVTSAFYDKFLQWKLFEMQPVSDKYFTEFRVLGKGGFGEVCAVQVKNTGKMYACKKLDKKRLKKKGGEKMALLEKEILEKVSSPFIVSLAYAFESKTHLCLVMSLMNGGDLKFHIYNVGTRGLDMSRVIFYSAQIACGMLHLHELGIVYRDMKPENVLLDDLGNCRLSDLGLAVEMKGGKPITQRAGTNGYMAPEILMEKVSYSYPVDWFAMGCSIYEMVAGRTPFKDYKEKVSKEDLKQRTLQDEVKFQHDNFTEEAKDICRLFLAKKPEQRLGSREKSDDPRKHHFFKTINFPRLEAGLIEPPFVPDPSVVYAKDIAEIDDFSEVRGVEFDDKDKQFFKNFATGAVPIAWQEEIIETGLFEELNDPNRPTGCEEGNSSKSGVCLLL
B4 yielded an Activity (cpm), kinase mixed with peptide and 33P-ATP in assay [1] of 7260 cpm. The Activity (cpm), kinase mixed with peptide and 33P-ATP in assay [2] came to 13100 cpm. Further, in assay [3], the “Activity, A366 peptide” value stood at 7263 cpm. Also, in assay [4], the Fold inducton is listed as 1.81 and the “Activity, S366 peptide” value was 13124 cpm.

B5: IKKα (enzyme)
chain: MERPPGLRPGAGGPWEMRERLGTGGFGNVCLYQHRELDLKIAIKSCRLELSTKNRERWCHEIQIMKKLNHANVVKACDVPEELNILIHDVPLLAMEYCSGGDLRKLLNKPENCCGLKESQILSLLSDIGSGIRYLHENKIIHRDLKPENIVLQDVGGKIIHKIIDLGYAKDVDQGSLCTSFVGTLQYLAPELFENKPYTATVDYWSFGTMVFECIAGYRPFLHHLQPFTWHEKIKKKDPKCIFACEEMSGEVRFSSHLPQPNSLCSLVVEPMENWLQLMLNWDPQQRGGPVDLTLKQPRCFVLMDHILNLKIVHILNMTSAKIISFLLPPDESLHSLQSRIERETGINTGSQELLSETGISLDPRKPASQCVLDGVRGCDSYMVYLFDKSKTVYEGPFASRSLSDCVNYIVQDSKIQLPIIQLRKVWAEAVHYVSGLKEDYSRLFQGQRAAMLSLLRYNANLTKMKNTLISASQQLKAKLEFFHKSIQLDLERYSEQMTYGISSEKMLKAWKEMEEKAIHYAEVGVIGYLEDQIMSLHAEIMELQKSPYGRRQGDLMESLEQRAIDLYKQLKHRPSDHSYSDSTEMVKIIVHTVQSQDRVLKELFGHLSKLLGCKQKIIDLLPKVEVALSNIKEADNTVMFMQGKRQKEIWHLLKIACTQSSARSLVGSSLEGAVTPQTSAWLPPTSAEHDHSLSCVVTPQDGETSAQMIEENLNCLGHLSTIIHEANEEQGNSMMNLDWSWLTE
With B5, the Activity (cpm), kinase mixed with peptide and 33P-ATP in assay [1] stood at 2430 cpm; in assay [2], 6890 cpm. In addition, the “Activity, A366 peptide” value in assay [3] stood at 2432 cpm. This molecule also showed a Fold inducton in assay [4] of 2.83. Also, in assay [4], the “Activity, S366 peptide” value is recorded as 6889 cpm.

B6: RIPK5 (enzyme)
chain: SICSQFRTRLNSSHEAFAASLRQLEAGHSGRLEKTEDLWLRVRKDHAPRLARLSLESCSLQDVLLHRKPKLGQELGRGQYGVVYLCDNWGGHFPCALKSVVPPDEKHWNDLALEFHYMRSLPKHERLVDLHGSVIDYNYGGGSSIAVLLIMERLHRDLYTGLKAGLTLETRLQIALDVVEGIRFLHSQGLVHRDIKLKNVLLDKQNRAKITDLGFCKPEAMMSGSIVGTPIHMAPELFTGKYDNSVDVYAFGILFWYICSGSVKLPEAFERCASKDHLWNNVRRGARPERLPVFDEECWQLMEACWDGDPLKRPLLGIVQPMLQGIMNRLCKSNSEQPNRGLDDST
In turn, B6 returned an Activity (cpm), kinase mixed with peptide and 33P-ATP in assay [1] of 1330 cpm. In addition, the Activity (cpm), kinase mixed with peptide and 33P-ATP in assay [2] was 16000 cpm. In addition, the “Activity, A366 peptide” value in assay [3] was determined as 1327 cpm. Besides, in assay [4], the Fold inducton came out at 12.03 and the “Activity, S366 peptide” value was 15966 cpm.

B7: MEKK1 (enzyme)
chain: NQKCKEKMEAEEEEALAIAMAMSASQDALPIVPQLQVENGEDIIIIQQDTPETLPGHTKAKQPYREDTEWLKGQQIGLGAFSSCYQAQDVGTGTLMAVKQVTYVRNTSSEQEEVVEALREEIRMMSHLNHPNIIRMLGATCEKSNYNLFIEWMAGGSVAHLLSKYGAFKESVVINYTEQLLRGLSYLHENQIIHRDVKGANLLIDSTGQRLRIADFGAAARLASKGTGAGEFQGQLLGTIAFMAPEVLRGQQYGRSCDVWSVGCAIIEMACAKPPWNAEKHSNHLALIFKIASATTAPSIPSHLSPGLRDVALRCLELQPQDRPPSRELLKHPVFRTTW
In turn, B7 came in with an Activity (cpm), kinase mixed with peptide and 33P-ATP in assay [1] of 11300 cpm. This molecule displayed an Activity (cpm), kinase mixed with peptide and 33P-ATP in assay [2] of 24900 cpm. In addition, the “Activity, A366 peptide” value in assay [3] amounted to 11316 cpm. Further, in assay [4], the Fold inducton came out at 2.20 and the “Activity, S366 peptide” value was found to be 24866 cpm.
